Source: PMC5741622, “Structure of a Wbl protein and implications for NO sensing by M. tuberculosis” (Nature Communications, 2017)

T1: M. tuberculosis σ^ACTD fused to the T18 domain of Bordetella pertussis adenylate cyclase (Mycobacterium tuberculosis, UniProt P9WGI1 447-528)
T1 construct: also called T18-σ^ACTD
T1 sequence: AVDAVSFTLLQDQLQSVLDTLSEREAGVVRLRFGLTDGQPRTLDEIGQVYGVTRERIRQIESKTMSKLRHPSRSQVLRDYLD

B1: Mycobacterium tuberculosis WhiB1, untagged, [4Fe-4S] form (holo-WhiB1), co-expressed with His-tagged σ^A or σ^ACTD (natural protein)
chain: MDWRHKAVCRDEDPELFFPVGNSGPALAQIADAKLVCNRCPVTTECLSWALNTGQDSGVWGGMSEDERRALKRRNARTKARTGV
modifications: [4Fe-4S] cluster coordinated by cysteine residues 9, 37, 40 and 46
notes: Iron-sulfur cluster assembled in vivo; free [4Fe-4S]; WhiB1 seen at 9668 Da and apo-WhiB1 at 9315 Da in native ESI-MS; also called [4Fe-4S]-WhiB1; untagged WhiB1
B2: M. tuberculosis WhiB1 fused to the T25 domain of Bordetella pertussis adenylate cyclase (natural protein)
chain: B1 chain
notes: also called T25-WhiB1
B3: His-tagged C-terminal domain (amino acids Ala447-Asp528) of M. tuberculosis σ^A (domain or fragment)
chain: T1 sequence
notes: A thrombin cleavage site lies between the His6 tag and the domain; seen at 11,522 Da in native ESI-MS; also called His-σ^ACTD; σ^ACTD; not shown: His6, N-terminal, kept

Columns and labels:
[1] = target: B3; experiment: native MS; details: both partners purified
[2] = target: T1, M. tuberculosis σ^ACTD fused to the T18 …; experiment: two-hybrid; details: partners not purified
[3] = target: B1; experiment: pull-down; details: partners not purified

B1 was tested, and the “stoichiometry N” value [1] was 1.

For B2, the “β-galactosidase activity against the negative control (vectors only)” value [2] was ~20 fold and the “β-galactosidase activity against the positive control (Zip-Zip)” value [2] was ~3 fold lower.

B3: binds [3].
